Measurements published in patent US20250277045A1 (KEYMED BIOSCIENCES, published 2025).
Substitutions are numbered along the chain they refer to.

T1: human BCMA on cells (CHO-hBCMA clone 2C2; NCI-H929; RPMI-8226) (human, UniProt Q02223 1-184)
T1 construct: whole, on cells; also called Human BCMA-CHO; CHO-hBCMA-2C2
T1 sequence (looked up): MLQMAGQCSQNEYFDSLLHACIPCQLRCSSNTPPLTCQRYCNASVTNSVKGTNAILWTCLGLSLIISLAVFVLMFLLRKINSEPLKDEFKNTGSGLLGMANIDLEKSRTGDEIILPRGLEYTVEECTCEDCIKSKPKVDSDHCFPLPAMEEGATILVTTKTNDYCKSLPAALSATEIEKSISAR

T2: human BCMA recombinant antigen (human, UniProt Q02223 1-53)
T2 construct: range 1-53; also called human BCMA recombinant protein
T2 sequence (looked up): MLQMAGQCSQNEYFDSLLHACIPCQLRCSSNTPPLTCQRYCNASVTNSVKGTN

T3: cynomolgus monkey CD3εγ-Fc heterodimer (cynomolgus monkey)
T3 chain 1: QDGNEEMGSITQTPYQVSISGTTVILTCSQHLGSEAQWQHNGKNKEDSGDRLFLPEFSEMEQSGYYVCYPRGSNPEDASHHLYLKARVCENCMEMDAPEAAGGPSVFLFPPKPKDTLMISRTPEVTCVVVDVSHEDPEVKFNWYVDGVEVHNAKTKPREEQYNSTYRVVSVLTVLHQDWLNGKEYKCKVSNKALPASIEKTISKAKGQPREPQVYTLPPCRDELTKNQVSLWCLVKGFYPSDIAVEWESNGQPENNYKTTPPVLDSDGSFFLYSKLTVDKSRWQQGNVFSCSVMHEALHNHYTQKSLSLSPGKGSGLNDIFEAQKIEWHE
T3 chain 2: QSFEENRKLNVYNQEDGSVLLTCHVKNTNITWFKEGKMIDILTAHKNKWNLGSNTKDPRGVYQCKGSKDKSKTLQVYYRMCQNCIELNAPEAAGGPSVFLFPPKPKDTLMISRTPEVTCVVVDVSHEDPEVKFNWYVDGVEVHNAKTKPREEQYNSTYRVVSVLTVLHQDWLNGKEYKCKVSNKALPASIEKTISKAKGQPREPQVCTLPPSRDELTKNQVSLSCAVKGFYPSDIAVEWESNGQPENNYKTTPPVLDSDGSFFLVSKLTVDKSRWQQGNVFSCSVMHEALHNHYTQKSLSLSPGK

B1: BCMA×CD3 κλ005 (bispecific antibody, human IgG4 S228P, kappa, lambda)
light 1: DIVLTQSPASLAVSPGQRATITCRASKSVSTSGYSYMHWYQKKPGQPPKLLIYLASNLESGVPARFSGSGSGTDFTLTINPVEAEDTANYYCQHSRELPWTFGQGTKVEIKRTVAAPSVFIFPPSDEQLKSGTASVVCLLNNFYPREAKVQWKVDNALQSGNSQESVTEQDSKDSTYSLSSTLTLSKADYEKHKVYACEVTHQGLSSPVTKSFNRGEC
heavy 1: QVQLVQSGSELKKPGASVKVSCKASGYIFTNFGMNWVREAPGQGLEWMGWINTYTGEQIYADGFTGRFVFSLDTSVSTAYLQISSLKAEDTAVYFCARGEIYYGYDVGFVYWGQGTLVTVSSASTKGPSVFPLAPCSRSTSESTAALGCLVKDYFPEPVTVSWNSGALTSGVHTFPAVLQSSGLYSLSSVVTVPSSSLGTKTYTCNVDHKPSNTKVDKRVESKYGPPCPPCPAPEFEGGPSVFLFPPKPKDTLMISRTPEVTCVVVDVSQEDPEVQFNWYVDGVEVHNAKTKPREEQFNSTYRVVSVLTVLHQDWLNGKEYKCKVSNKGLASSIEKTISKAKGQPREPQVCTLPPSQEEMTKNQVSLSCAVKGFYPSDIAVEWESNGQPENNYKTTPPVLDSDGSFFLVSKLTVDKSRWQEGNVFSCSVMHEALHNHYTQKSLSLSLGK
light 2: QAVVTQEPSLTVSPGGTVTLTCRSSTGAVTTSNYANWVQEKPGQAPRGLIGGTNKRAPWTPARFSGSLLGGKAALTITGAQAEDEAEYYCVLWYSNLWVFGGGTKLTVLGQPKAAPSVTLFPPSSEELQANKATLVCLISDFYPGAVTVAWKADSSPVKAGVETTTPSKQSNNKYAASSYLSLTPEQWKSHRSYSCQVTHEGSTVEKTVAPTECS
heavy 2: EVQLVESGGGLVQPGGSLRLSCAASGFTFNTYAMNWVRKAPGKGLEWVGRIRSKYNNYATYYADSVKDRFTISRDDSKNSLYLQMNSLKTEDTAVYYCVRHGNFGNSYVSWFAYWGQGTLVTVSSASTKGPSVFPLAPCSRSTSESTAALGCLVKDYFPEPVTVSWNSGALTSGVHTFPAVLQSSGLYSLSSVVTVPSSSLGTKTYTCNVDHKPSNTKVDKRVESKYGPPCPPCPAPEFEGGPSVFLFPPKPKDTLMISRTPEVTCVVVDVSQEDPEVQFNWYVDGVEVHNAKTKPREEQFNSTYRVVSVLTVLHQDWLNGKEYKCKVSNKGLASSIEKTISKAKGQPREPQVYTLPPCQEEMTKNQVSLWCLVKGFYPSDIAVEWESNGQPENNYKTTPPVLDSDGSFFLYSKLTVDKSRWQEGNVFSCSVMHEALHNHYTQKSLSLSLGK
B2: BCMA×CD3 κλ006 (bispecific antibody, human IgG4 S228P, kappa, lambda)
light 1: B1 light 1 with S30T, M37I, N57D, S60A
heavy 1: B1 heavy 1
light 2: B1 light 2
heavy 2: B1 heavy 2

Columns and labels:
[1] = target: T4, human CD3 on T cells (Jurkat cells; human peripheral blood CD4+ and CD8+ T cells) (human, UniProt P07766 23-207); assay: flow cytometry, peripheral blood CD4+ T cells (PBMC)
T4 construct: whole, on cells; also called CD3ε
Procedure: (§1) Fresh human or cynomolgus monkey peripheral blood was taken and PBMC was isolated by Ficoll-Paque Plu (GE, 17-1440-03). […] 50 μL/well Alexa Fluro647 labeled goat anti-human IgG Fc (1:300 dilution) was added to the secondary antibody, ice bath for 20 min, 50 μL/well PI was added after washing once, incubated for 5 min, and flow cytometer (BD C6) was used to perform detection.

[2] = target: T4, human CD3 on T cells (Jurkat cells; …); assay: flow cytometry, peripheral blood CD8+ T cells (PBMC)
Procedure: as §1

[3] = target: T4, human CD3 on T cells (Jurkat cells; …); assay: flow cytometry, Jurkat cells
Procedure: Jurkat cells in the logarithmic growth phase were added with 200 μg/mL murine IgG (Jackson ImmunoResearch, 115-005-03) and incubated on ice for 30 min. […] 50 μL/well Alexa Fluro647 labeled goat anti-human IgG Fc (1:300 dilution) was added to the secondary antibody, incubated on ice for 20 min, 50 μL/well PI was added after washing once, incubated for 5 min, and flow cytometer (BD C6) was used to perform detection.

[4] = target: T5, cynomolgus monkey BCMA on CHO cells (CHO-cynoBCMA clone 1A2) (cynomolgus monkey, UniProt A0A2K5UD97 1-183); assay: flow cytometry, CHO-cynomolgus monkey BCMA cells
T5 construct: whole, on cells; also called Cynomolgus monkey BCMA-CHO; CHO-cynoBCMA-1A2
Procedure: (§2) 50 μL/well Alexa Fluro647 labeled goat anti-human IgG Fc (1:300 dilution) was added to the secondary antibody, incubated on ice for 20 min, 50 μL/well PI solution (1:300) was added after washing once, incubated for 5 min, and flow cytometer was used to perform detection.

[5] = target: T1, human BCMA on cells (CHO-hBCMA clone …); assay: flow cytometry, CHO-human BCMA cells
Procedure: as §2

[6] = target: T2, human BCMA recombinant antigen; assay: competition ELISA, coated human BCMA, antibody varied, then biotinylated human APRIL at 240 ng/mL, SA-HRP
Procedure: 1 μg/mL human BCMA recombinant antigen was prepared with pH 9.6 carbonic acid buffer, added to a maxisorp96-well plate, and coated overnight at 4° C. After blocking with 5% skim milk/PBS for 1 h at room temperature, 50 μL antibody per well (4-fold dilution from 30 μg/mL for a total of 10 gradients) was added and incubated for 30 min at room temperature. […] After 3 washes with 0.05% PBST (PBS+0.05% Tween-20) and PBS respectively, 100 μL of SA-HRP (diluted 1:8000) was added to each well and incubated at room temperature for 45 min. Washing 3 times with 0.05% PBST and PBS respectively, 100 μL TMB color-developing solution was added into each well, after 10 min, 50 μL concentrated sulfuric acid was added into each well to stop the reaction, read OD450 nm by a microplate reader, and perform three-parameter fitting curve using Graphpad software.

[7] = target: T1, human BCMA on cells (CHO-hBCMA clone …); assay: flow cytometry, NCI-H929 cells
Procedure: (§3) The primary antibody was washed off, 50 μL/well Alexa Fluro647 labeled goat anti-human IgG Fc (1:300 dilution) was added, incubated on ice for 20 min, 50 μL/well PI was added after washing once, incubated for 5 min, and flow cytometer was used to perform detection.

[8] = target: T1, human BCMA on cells (CHO-hBCMA clone …); assay: flow cytometry, RPMI-8226 cells
Procedure: as §3

[9] = target: T6, cynomolgus monkey BCMA recombinant antigen (cynomolgus monkey, UniProt A0A2K5UD97 1-51); assay: SPR (Biacore T200), antigen amine-coupled to CM5, antibody as analyte, 1:1 model
T6 construct: range 1-52
Procedure: (§4) 10 μg/mL human or cynomolgus monkey BCMA or CD3εγ recombinant antigen was bound to a CM5 chip (GE healthcare) by amino coupling, controlling the amount of antigen bound to approximately 200 RU. After the baseline plateau, gradient-diluted antibodies (from 10 μg/mL, 2-fold dilutions for 7 gradients) flowed through the chip at a flow rate of 30 μL/min for a binding time of 350 seconds and a dissociation time of 600 seconds. Kinetic constants were fitted using Biacore T200 evaluation software with a 1:1 binding model.

[10] = target: T3, cynomolgus monkey CD3εγ-Fc heterodimer; assay: as above
Procedure: as §4

[11] = target: T2, human BCMA recombinant antigen; assay: as above
Procedure: as §4

T4 sequence (P07766 23-207): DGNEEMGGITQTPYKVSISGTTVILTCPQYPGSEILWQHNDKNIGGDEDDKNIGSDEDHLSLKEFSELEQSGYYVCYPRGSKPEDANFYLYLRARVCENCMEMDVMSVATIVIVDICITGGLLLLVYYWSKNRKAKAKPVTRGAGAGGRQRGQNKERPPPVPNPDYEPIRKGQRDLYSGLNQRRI
T5 sequence (A0A2K5UD97 entry or part of it): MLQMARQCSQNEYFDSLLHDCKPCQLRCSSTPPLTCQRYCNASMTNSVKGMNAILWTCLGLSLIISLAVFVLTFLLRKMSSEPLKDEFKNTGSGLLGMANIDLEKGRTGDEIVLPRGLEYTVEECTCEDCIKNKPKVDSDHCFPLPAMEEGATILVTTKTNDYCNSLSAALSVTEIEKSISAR
T6 sequence (A0A2K5UD97 entry or part of it): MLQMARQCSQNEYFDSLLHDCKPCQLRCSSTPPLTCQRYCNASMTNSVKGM

Binder | EC50 [1] | EC50 [2] | EC50 [3] | EC50 [4] | EC50 [5] | IC50 (read off the curve) [6] | EC50 [7] | EC50 [8] | Kd [9] | Kd [10] | Kd [11]
B1 | 66 nM | 60 nM | 51 nM | 3 nM | 24 nM | ~3 nM | 33 nM | 38 nM | 0.09 nM | 20 nM | 1.1 nM
B2 | 91 nM | 93 nM | 56 nM | 3 nM | 16 nM | ~2 nM | 32 nM | 19 nM | 0.1 nM | 33 nM | 1.2 nM
